Measurements as given in patent US9926377B2, “Anti-GPC3 antibodies and immunoconjugates” (GENENTECH, INC., priority 2014, dated 2018).

Assays:
[1] = biological target: T1, GPC3 (Homo sapiens, UniProt P51654); experiment: Binding to GPC3-expressing cells by FACS; parameters: endogenous in cells
Excerpt: Positive clones were expanded and re-screened for binding to huGPC3, cynoGPC3, and HepG2 cells by ELISA, FACS, and immunohistochemistry (IHC). Thirteen antibodies were selected and purified, including antibodies 7H1 and 4G7. The heavy and light chain variable region sequences of antibody 7H1 are shown in SEQ ID NOs: 2 and 3, respectively. The heavy and light chain variable region sequences of antibody 4G7 are shown in SEQ ID NOs: 26 and 27, respectively.
Antibody 7H1 also detects human, cynomolgus monkey, rat, and mouse GPC3 by Western blot.
Target sequence in this assay (P51654 25-554): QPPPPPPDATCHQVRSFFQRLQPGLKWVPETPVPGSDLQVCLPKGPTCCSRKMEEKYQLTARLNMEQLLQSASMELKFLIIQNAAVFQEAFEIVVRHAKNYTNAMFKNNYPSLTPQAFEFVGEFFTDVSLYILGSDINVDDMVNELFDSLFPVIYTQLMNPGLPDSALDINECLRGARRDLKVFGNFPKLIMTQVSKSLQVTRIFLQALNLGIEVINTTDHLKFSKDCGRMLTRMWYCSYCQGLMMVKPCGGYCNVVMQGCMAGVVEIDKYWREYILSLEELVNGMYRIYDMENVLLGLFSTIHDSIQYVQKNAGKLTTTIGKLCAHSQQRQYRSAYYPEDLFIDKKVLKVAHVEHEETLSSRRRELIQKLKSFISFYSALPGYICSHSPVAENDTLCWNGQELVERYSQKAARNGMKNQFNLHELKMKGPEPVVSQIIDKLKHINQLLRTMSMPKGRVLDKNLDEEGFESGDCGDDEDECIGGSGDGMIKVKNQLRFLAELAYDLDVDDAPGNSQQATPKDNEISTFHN

[2] = biological target: T1, GPC3; experiment: FACS binding to human GPC3 fragments expressed on 293S cells; parameters: C-terminal glycophosphatidylinositol anchor (GPI link) (C); expressed in transfected cells; host or cells: 293S cells, transient; conditions: N-terminal fragment, amino acids 25 to 358 of human GPC3, on 293S cells
Excerpt: (§1) C-terminal truncation constructs of human GPC3 were made to further refine the epitopes for antibodies 7H1 and 4G7. […] The three C-terminal truncations each comprised the GPC N-terminal signal sequence (SS) and C-terminal glycophosphatidylinositol anchor (GPI link). […] See FIG. 7 (Santa Cruz Biotechnology antibody 1G12, which was raised to amino acids 511-580 of human GPC3, was used as a positive control for C-terminal fragment binding). Antibody 7H1 was reformatted as a chimeric antibody with human A118C cysteine-engineered IgG1 and Igκ constant regions (SEQ ID NOs: 42 and 43).
Target sequence in this assay (P51654 25-358): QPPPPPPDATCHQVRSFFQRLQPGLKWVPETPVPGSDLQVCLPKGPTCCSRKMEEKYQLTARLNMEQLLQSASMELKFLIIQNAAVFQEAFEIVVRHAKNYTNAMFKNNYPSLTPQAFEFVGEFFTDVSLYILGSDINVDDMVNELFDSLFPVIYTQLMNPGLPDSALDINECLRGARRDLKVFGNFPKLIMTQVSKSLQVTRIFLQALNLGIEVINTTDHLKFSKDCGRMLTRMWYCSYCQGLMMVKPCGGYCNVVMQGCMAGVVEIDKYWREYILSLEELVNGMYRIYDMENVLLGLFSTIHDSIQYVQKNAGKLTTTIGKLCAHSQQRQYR

[3] = biological target: T2, human GPC3 (Homo sapiens, UniProt P51654); experiment: as above; conditions: C-terminal fragment, amino acids 359-560 of human GPC3, on 293S cells
T2 construct: C-terminal glycophosphatidylinositol anchor (GPI link) (C); expressed in transfected cells; host or cells: 293S cells, transient
T2 sequence (P51654 359-560): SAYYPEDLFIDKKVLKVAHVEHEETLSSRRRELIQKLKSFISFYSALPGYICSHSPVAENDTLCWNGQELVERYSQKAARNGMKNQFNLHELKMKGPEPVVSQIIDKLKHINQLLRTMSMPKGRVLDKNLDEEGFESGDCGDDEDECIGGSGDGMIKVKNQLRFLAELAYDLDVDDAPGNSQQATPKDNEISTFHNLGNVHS
Excerpt: as §1

[4] = biological target: biotinylated GPC3 (Homo sapiens, UniProt P51654); experiment: Epitope binning competition assay (Octet RED384); format: binding; conditions: 7H1 or 4G7 as first saturating antibody 10 μg/ml; competing antibodies 5 μg/ml
biotinylated GPC3, sequence (P51654 25-554): as the sequence (P51654 25-554) above
Method: Epitope binning of anti-GPC3 antibodies was performed using a competition assay. Using the Octet RED384 instrument (ForteBio), biotinylated GPC3 was captured onto Streptavidin biosensors at 10 μg/ml for 600 seconds. Binding of the first antibody to saturation was achieved by adding 10 μg/ml for 600 seconds. The same biosensors were dipped into the competing antibodies at 5 μg/ml and binding was measured for 600 seconds. […] Antibody 7H1 was used as the first saturating antibody. A subsequent experiment was performed using antibody 4G7 as the first saturating antibody.

Reactivity by FACS ([1]; 293S cells expressing GPC3): react strongly | Reactivity by FACS ([1]; HepG2 X1 cells): react strongly | Binding by FACS [2]: did not show significant binding | Binding by FACS [3]: did not show significant binding | Epitope bin [4]: different epitope bins
B1: 4G7: anti-GPC3 monoclonal antibody; heavy and light chain variable regions SEQ ID NOs: 26 and 27 (antibody, V domains shown)
VH: EVQLQQSGTVLARPGASVKMSCKASGYTFTSYWVHWVKQRPGQGLEWIGAIYPGNIDASYNQKFKGKAKLTAVTSTSTAYMELSSLTNEDSAVYYCSYDYDAWFVYWGQGTLVTVSA
VL: DIQMTQSHKFMSTSVGDRVSITCKASQDVSTAVAWYQQKPGQSPTLLIYSASYRYTGVPDRFTGSGSGTDFTFTISSVQAEDLAVYYCQQHYFTPRTFGGGTKLELK
